From the supplement of paper PMC5998384

How the values were obtained:
HeLa Kyoto [1] = assay: solubility change mitosis vs G1/S (difference of NP-40 vs SDS log2 ratios) (log2 ratio difference); higher = more soluble in mitosis
HeLa Kyoto [2] = assay: solubility in G1/S (NP-40 vs SDS abundance) (log2 ratio); higher = more soluble; settings: cell cycle stage: G1/S
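For solubility change mitosis vs G1/S (difference of NP-40 vs SDS log2 ratios) in this document: synchronized HeLa Kyoto cells (double thymidine block for G1/S, nocodazole release for mitosis), protein amounts in NP-40 versus SDS lysates quantified by mass spectrometry, three biological replicates.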
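For solubility in G1/S (NP-40 vs SDS abundance) in this document: HeLa Kyoto cells arrested at G1/S by double thymidine block, proteins quantified by TMT10plex mass spectrometry in mild NP-40 versus SDS extracts, three biological replicates.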

| Sequence | solubility change mitosis (log2) (HeLa Kyoto [1]) | solubility in G1/S (log2) (HeLa Kyoto [2]) |
| --- | --- | --- |
| MQLRKMQTVKKEQASLDASSNVDKMMVLNSALTEVSEDSTTGEELLLSEGSVGKNKSSACRRKREFIPDEKKDAMYWEKRRKNNEAAKRSREKRRLNDLVLENKLIALGEENATLKAELLSLKLKFGLISSTAYAQEIQKLSNSTAVYFQDYQTSKSNVSSFVDEHEPSMVSSSCISVIKHSPQSSLSDVSEVSSVEHTQESSVQGSCRSPENKFQIIKQEPMELESYTREPRDDRGSYTASIYQNYMGNSFSGYSHSPPLLQVNRSSSNSPRTSETDDGVVGKSSDGEDEQQVPKGPIHSPVELKHVHATVVKVPEVNSSALPHKLRIKAKAMQIKVEAFDNEFEATQKLSSPIDMTSKRHFELEKHSAPSMVHSSLTPFSVQVTNIQDWSLKSEHWHQKELSGKTQNSFKTGVVEMKDSGYKVSDPENLYLKQGIANLSAEVVSLKRLIATQPISASDSG [NFIL3] | 0.104 | 0.00864 |
| MQRAVPEGFGRRKLGSDMGNAERAPGSRSFGPVPTLLLLAAALLAVSDALGRPSEEDEELVVPELERAPGHGTTRLRLHAFDQQLDLELRPDSSFLAPGFTLQNVGRKSGSETPLPETDLAHCFYSGTVNGDPSSAAALSLCEGVRGAFYLLGEAYFIQPLPAASERLATAAPGEKPPAPLQFHLLRRNRQGDVGGTCGVVDDEPRPTGKAETEDEDEGTEGEDEGAQWSPQDPALQGVGQPTGTGSIRKKRFVSSHRYVETMLVADQSMAEFHGSGLKHYLLTLFSVAARLYKHPSIRNSVSLVVVKILVIHDEQKGPEVTSNAALTLRNFCNWQKQHNPPSDRDAEHYDTAILFTRQDLCGSQTCDTLGMADVGTVCDPSRSCSVIEDDGLQAAFTTAHELGHVFNMPHDDAKQCASLNGVNQDSHMMASMLSNLDHSQPWSPCSAYMITSFLDNGHGECLMDKPQNPIQLPGDLPGTSYDANRQCQFTFGEDSKHCPDAASTCSTLWCTGTSGGVLVCQTKHFPWADGTSCGEGKWCINGKCVNKTDRKHFDTPFHGSWGMWGPWGDCSRTCGGGVQYTMRECDNPVPKNGGKYCEGKRVRYRSCNLEDCPDNNGKTFREEQCEAHNEFSKASFGSGPAVEWIPKYAGVSPKDRCKLICQAKGIGYFFVLQPKVVDGTPCSPDSTSVCVQGQCVKAGCDRIIDSKKKFDKCGVCGGNGSTCKKISGSVTSAKPGYHDIITIPTGATNIEVKQRNQRGSRNNGSFLAIKAADGTYILNGDYTLSTLEQDIMYKGVVLRYSGSSAALERIRSFSPLKEPLTIQVLTVGNALRPKIKYTYFVKKKKESFNAIPTFSAWVIEEWGECSKSCELGWQRRLVECRDINGQPASECAKEVKPASTRPCADHPCPQWQLGEWSSCSKTCGKGYKKRSLKCLSHDGGVLSHESCDPLKKPKHFIDFCTMAECS [ADAMTS1] | -0.192 | -0.34 |
| MQRRSRGINTGLILLLSQIFHVGINNIPPVTLATLALNIWFFLNPQKPLYSSCLSVEKCYQQKDWQRLLLSPLHHADDWHLYFNMASMLWKGINLERRLGSRWFAYVITAFSVLTGVVYLLLQFAVAEFMDEPDFKRSCAVGFSGVLFALKVLNNHYCPGGFVNILGFPVPNRFACWVELVAIHLFSPGTSFAGHLAGILVGLMYTQGPLKKIMEACAGGFSSSVGYPGRQYYFNSSGSSGYQDYYPHGRPDHYEEAPRNYDTYTAGLSEEEQLERALQASLWDRGNTRNSPPPYGFHLSPEEMRRQRLHRFDSQ [RHBDD1] | -0.0234 | -0.291 |
| MRFAWTVLLLGPLQLCALVHCAPPAAGQQQPPREPPAAPGAWRQQIQWENNGQVFSLLSLGSQYQPQRRRDPGAAVPGAANASAQQPRTPILLIRDNRTAAARTRTAGSSGVTAGRPRPTARHWFQAGYSTSRAREAGASRAENQTAPGEVPALSNLRPPSRVDGMVGDDPYNPYKYSDDNPYYNYYDTYERPRPGGRYRPGYGTGYFQYGLPDLVADPYYIQASTYVQKMSMYNLRCAAEENCLASTAYRADVRDYDHRVLLRFPQRVKNQGTSDFLPSRPRYSWEWHSCHQHYHSMDEFSHYDLLDANTQRRVAEGHKASFCLEDTSCDYGYHRRFACTAHTQGLSPGCYDTYGADIDCQWIDITDVKPGNYILKVSVNPSYLVPESDYTNNVVRCDIRYTGHHAYASGCTISPY [LOX] | 0.257 | -0.354 |
| MRGPSGALWLLLALRTVLGGMEVRWCATSDPEQHKCGNMSEAFREAGIQPSLLCVRGTSADHCVQLIAAQEADAITLDGGAIYEAGKEHGLKPVVGEVYDQEVGTSYYAVAVVRRSSHVTIDTLKGVKSCHTGINRTVGWNVPVGYLVESGRLSVMGCDVLKAVSDYFGGSCVPGAGETSYSESLCRLCRGDSSGEGVCDKSPLERYYDYSGAFRCLAEGAGDVAFVKHSTVLENTDGKTLPSWGQALLSQDFELLCRDGSRADVTEWRQCHLARVPAHAVVVRADTDGGLIFRLLNEGQRLFSHEGSSFQMFSSEAYGQKDLLFKDSTSELVPIATQTYEAWLGHEYLHAMKGLLCDPNRLPPYLRWCVLSTPEIQKCGDMAVAFRRQRLKPEIQCVSAKSPQHCMERIQAEQVDAVTLSGEDIYTAGKTYGLVPAAGEHYAPEDSSNSYYVVAVVRRDSSHAFTLDELRGKRSCHAGFGSPAGWDVPVGALIQRGFIRPKDCDVLTAVSEFFNASCVPVNNPKNYPSSLCALCVGDEQGRNKCVGNSQERYYGYRGAFRCLVENAGDVAFVRHTTVFDNTNGHNSEPWAAELRSEDYELLCPNGARAEVSQFAACNLAQIPPHAVMVRPDTNIFTVYGLLDKAQDLFGDDHNKNGFKMFDSSNYHGQDLLFKDATVRAVPVGEKTTYRGWLGLDYVAALEGMSSQQCSGAAAPAPGAPLLPLLLPALAARLLPPAL [MFI2] | -0.0542 | -0.519 |
| MRPKTFPATTYSGNSRQRLQEIREGLKQPSKSSVQGLPAGPNSDTSLDAKVLGSKDATRQQQQMRATPKFGPYQKALREIRYSLLPFANESGTSAAAEVNRQMLQELVNAGCDQEMAGRALKQTGSRSIEAALEYISKMGYLDPRNEQIVRVIKQTSPGKGLMPTPVTRRPSFEGTGDSFASYHQLSGTPYEGPSFGADGPTALEEMPRPYVDYLFPGVGPHGPGHQHQHPPKGYGASVEAAGAHFPLQGAHYGRPHLLVPGEPLGYGVQRSPSFQSKTPPETGGYASLPTKGQGGPPGAGLAFPPPAAGLYVPHPHHKQAGPAAHQLHVLGSRSQVFASDSPPQSLLTPSRNSLNVDLYELGSTSVQQWPAATLARRDSLQKPGLEAPPRAHVAFRPDCPVPSRTNSFNSHQPRPGPPGKAEPSLPAPNTVTAVTAAHILHPVKSVRVLRPEPQTAVGPSHPAWVPAPAPAPAPAPAPAAEGLDAKEEHALALGGAGAFPLDVEYGGPDRRCPPPPYPKHLLLRSKSEQYDLDSLCAGMEQSLRAGPNEPEGGDKSRKSAKGDKGGKDKKQIQTSPVPVRKNSRDEEKRESRIKSYSPYAFKFFMEQHVENVIKTYQQKVNRRLQLEQEMAKAGLCEAEQEQMRKILYQKESNYNRLKRAKMDKSMFVKIKTLGIGAFGEVCLACKVDTHALYAMKTLRKKDVLNRNQVAHVKAERDILAEADNEWVVKLYYSFQDKDSLYFVMDYIPGGDMMSLLIRMEVFPEHLARFYIAELTLAIESVHKMGFIHRDIKPDNILIDLDGHIKLTDFGLCTGFRWTHNSKYYQKGSHVRQDSMEPSDLWDDVSNCRCGDRLKTLEQRARKQHQRCLAHSLVGTPNYIAPEVLLRKGYTQLCDWWSVGVILFEMLVGQPPFLAPTPTETQLKVINWENTLHIPAQVKLSPEARDLITKLCCSADHRLGRNGADDLKAHPFFSAIDFSSDIRKQPAPYVPTISHPMDTSNFDPVDEESPWNDASEGSTKAWDTLTSPNNKHPEHAFYEFTFRRFFDDNGYPFRCPKPSGAEASQAESSDLESSDLVDQTEGCQPVYV [LATS2] | -0.0575 | 0.178 |
| MRRKGRCHRGSAARHPSSPCSVKHSPTRETLTYAQAQRMVEIEIEGRLHRISIFDPLEIILEDDLTAQEMSECNSNKENSERPPVCLRTKRHKNNRVKKKNEALPSAHGTPASASALPEPKVRIVEYSPPSAPRRPPVYYKFIEKSAEELDNEVEYDMDEEDYAWLEIVNEKRKGDCVPAVSQSMFEFLMDRFEKESHCENQKQGEQQSLIDEDAVCCICMDGECQNSNVILFCDMCNLAVHQECYGVPYIPEGQWLCRHCLQSRARPADCVLCPNKGGAFKKTDDDRWGHVVCALWIPEVGFANTVFIEPIDGVRNIPPARWKLTCYLCKQKGVGACIQCHKANCYTAFHVTCAQKAGLYMKMEPVKELTGGGTTFSVRKTAYCDVHTPPGCTRRPLNIYGDVEMKNGVCRKESSVKTVRSTSKVRKKAKKAKKALAEPCAVLPTVCAPYIPPQRLNRIANQVAIQRKKQFVERAHSYWLLKRLSRNGAPLLRRLQSSLQSQRSSQQRENDEEMKAAKEKLKYWQRLRHDLERARLLIELLRKREKLKREQVKVEQVAMELRLTPLTVLLRSVLDQLQDKDPARIFAQPVSLKEVPDYLDHIKHPMDFATMRKRLEAQGYKNLHEFEEDFDLIIDNCMKYNARDTVFYRAAVRLRDQGGVVLRQARREVDSIGLEEASGMHLPERPAAAPRRPFSWEDVDRLLDPANRAHLGLEEQLRELLDMLDLTCAMKSSGSRSKRAKLLKKEIALLRNKLSQQHSQPLPTGPGLEGFEEDGAALGPEAGEEVLPRLETLLQPRKRSRSTCGDSEVEEESPGKRLDAGLTNGFGGARSEQEPGGGLGRKATPRRRCASESSISSSNSPLCDSSFNAPKCGRGKPALVRRHTLEDRSELISCIENGNYAKAARIAAEVGQSSMWISTDAAASVLEPLKVVWAKCSGYPSYPALIIDPKMPRVPGHHNGVTIPAPPLDVLKIGEHMQTKSDEKLFLVLFFDNKRSWQWLPKSKMVPLGIDETIDKLKMMEGRNSSIRKAVRIAFDRAMNHLSRVHGEPTSDLSDID [BRD1] | 0.194 | -0.879 |
| MRRSRSSAAAKLRGQKRSGASGASAAPAASAAAALAPSATRTRRSASQAGSKSQAVEKPPSEKPRLRRSSPRAQEEGPGEPPPPELALLPPPPPPPPTPATPTSSASNLDLGEQRERWETFQKRQKLTSEGAAKLLLDTFEYQGLVKHTGGCHCGAVRFEVWASADLHIFDCNCSICKKKQNRHFIVPASRFKLLKGAEHITTYTFNTHKAQHTFCKRCGVQSFYTPRSNPGGFGIAPHCLDEGTVRSMVTEEFNGSDWEKAMKEHKTIKNMSKE [CENPV] | 0.822 | -2.01 |
